Key:
[1] = biological target: Type 1 IGF receptor (IGF-1R) (human) (UniProt P08069); assay: competitive displacement of 125I-labeled IGF-I; IGF-1R (FIG. 9B)
[2] = biological target: Type 1 IGF receptor (IGF-1R) (human) (UniProt P08069); assay: competitive displacement of 125I-Tyr31-human IGF-I; human IGF-1R, Experiment 1
[3] = biological target: Type 1 IGF receptor (IGF-1R) (human) (UniProt P08069); assay: competitive displacement of 125I-Tyr31-human IGF-I; human IGF-1R, Experiment 2

Type 1 IGF receptor (IGF-1R) (human), sequence (P08069 31-1367 limits assumed): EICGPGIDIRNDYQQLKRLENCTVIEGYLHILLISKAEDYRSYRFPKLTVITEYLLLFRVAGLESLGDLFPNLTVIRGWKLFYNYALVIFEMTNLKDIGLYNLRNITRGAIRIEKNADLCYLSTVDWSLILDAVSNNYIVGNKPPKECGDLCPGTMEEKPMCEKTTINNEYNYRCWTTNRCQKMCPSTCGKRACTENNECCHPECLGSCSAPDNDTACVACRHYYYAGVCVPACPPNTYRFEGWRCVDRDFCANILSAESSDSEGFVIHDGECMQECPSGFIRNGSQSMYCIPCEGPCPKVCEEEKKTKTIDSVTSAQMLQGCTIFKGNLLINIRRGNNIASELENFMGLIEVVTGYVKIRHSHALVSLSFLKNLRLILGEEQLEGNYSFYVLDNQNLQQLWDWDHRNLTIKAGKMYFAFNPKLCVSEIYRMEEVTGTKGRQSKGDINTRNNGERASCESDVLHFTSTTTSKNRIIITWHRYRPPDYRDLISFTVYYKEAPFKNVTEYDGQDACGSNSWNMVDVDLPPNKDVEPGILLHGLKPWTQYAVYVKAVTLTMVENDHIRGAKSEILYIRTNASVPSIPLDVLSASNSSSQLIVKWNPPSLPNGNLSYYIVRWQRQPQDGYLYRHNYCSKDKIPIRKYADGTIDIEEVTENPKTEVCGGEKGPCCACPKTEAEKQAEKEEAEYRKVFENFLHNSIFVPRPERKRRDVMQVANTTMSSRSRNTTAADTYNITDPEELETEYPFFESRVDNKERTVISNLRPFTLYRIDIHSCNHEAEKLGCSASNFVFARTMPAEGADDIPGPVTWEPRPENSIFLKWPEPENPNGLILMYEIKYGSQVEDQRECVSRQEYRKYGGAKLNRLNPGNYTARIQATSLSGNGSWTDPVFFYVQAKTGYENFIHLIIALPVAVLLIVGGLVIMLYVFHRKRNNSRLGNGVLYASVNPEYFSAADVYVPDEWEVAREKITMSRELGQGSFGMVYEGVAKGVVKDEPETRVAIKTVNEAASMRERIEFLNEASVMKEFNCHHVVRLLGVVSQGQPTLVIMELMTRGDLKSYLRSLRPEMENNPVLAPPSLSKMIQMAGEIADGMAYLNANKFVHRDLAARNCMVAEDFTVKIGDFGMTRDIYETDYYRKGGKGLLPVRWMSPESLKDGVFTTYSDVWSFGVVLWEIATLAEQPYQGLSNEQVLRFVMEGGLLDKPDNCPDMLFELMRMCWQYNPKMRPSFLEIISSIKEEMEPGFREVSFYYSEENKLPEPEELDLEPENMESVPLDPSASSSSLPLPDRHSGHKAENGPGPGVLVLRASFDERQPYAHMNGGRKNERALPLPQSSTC

| fold reduction of cross-binding relative to KP-insulin or wild-type insulin [1] [fold] | Kd [2] [nM] | Kd [3] [nM] | Substance |
| --- | --- | --- | --- |
| 3 |  |  | 4Cl-Phe^B24-KP-insulin (ligand; para-monochloro-phenylalanine (4Cl-Phe) at B24; other documents disagree on this pair) |
|  | 12.6 | 15.3 | KP-insulin (ligand; other documents disagree on this pair) |
|  | 522 |  | penta-fluoro-Phe^B24-KP-insulin (ligand; penta-fluoro-phenylalanine (F5-Phe) at B24; other documents disagree on this pair) |

Source: patent US20140128319A1
